{"source": "patent US6132722A", "about": "“Recombinant antibody-enzyme fusion proteins” (Bristol-Myers Squibb Company, priority 1998, dated 2000)", "molecules": {"B1": {"name": "L49-sFv-bL: recombinant fusion protein: L49 anti-p97 single-chain Fv (VH-218 linker-VL) fused to r2-1 mutant E. cloacae β-lactamase, SEQ ID NO: 20 (protein)", "chain": "MKYLLPTAAAGLLLLAAQPAMAEVQLQESGPSLVKPSQTLSLTCSVTGDSITSGYWNWIRKFPGNKLEYMGYISDSGITYYNPSLKSRISITRDTSKNQYYLQLNFVTAEDTATYNCARRTLATYYAMDYWGQGTSVTVSSGSTSGSGKPGSGEGSTKGDFVMTQTPLSLPVSLGDQASISCRASQSLVHSNGNTYLHWYLQKPGQSPKLLIYRVSNRFSGVPDRFSGSGSGTDFTLKISRVEAEDLGVYFCSQSTHVPPTFGGGTKLEIKRTPVSEKQLAEVVANTITPLMKAQSVPGMAVAVIYQGKPHYYTFGKADIAANKPVTPQTLFELGSISKTFTGVLGGDAIARGEISLDDAVTRYWPQLTGKQWQGIRMLDLATYTAGGLPLQVPDEVTDNASLLRFYQNWQPQWKPGTTRLYANASIGLFGALAVKPSGMPYEQAMTTRVLKPLKLDHTWINVPKAEEAHYAWGYRDGKAVRVSPGMLDAQAYGVKTNVQDMANWVMANMAPENVADASLKQGIALAQSRYWRIGSMYQGLGWEMLNWPVEANTVVETSFGNVALAPLPVAEVNPPAPPVKASWVHKTGSTGGFGSYVAFIPEKQIGIVMLANTSYPNPARVEAAYHILEALQTSEFE"}}, "key": {"[1]": {"system": "cell-surface antigens on SK-MEL 28 melanoma cells", "assay": "Fluorescence activated cell sorting competition binding assay against FITC-modified whole L49", "parameters": "species or system human", "details": "FACS competition assay", "protocol": "FIG. 7 depicts a competition binding assay. 3677 cells were incubated with various combinations of the test samples (L49, L49-sFv-bL, L49-Fab'-bL, and FITC-modified whole L49, keeping the total mAb concentration (test sample+L49-FITC) constant at 400 nM. Fluorescence intensity was determined by fluorescence activated cell sorter analysis.\nCompetition binding experiments were performed as described by Svensson et al.(Bioconjugate Chem., 3:176-181 (1992)). Immunoassays were performed by coating polystyrene 96 well plates with sp97 (0.1 mL, 2 μg/ml in PBS, overnight, 4° C.) After blocking with specimen diluent (Genetic Systems Corp.) for 1 h at 22° C., the blocking solution was replaced with fresh specimen diluent (0.1 ml) containing serial dilutions of the samples. After 1 h at 22° C. the plates were washed, followed by development with 0.1 mL of a nitrocefin (O'Callaghan et al., Antimicrobial Agents and Chemotherapy, 1:283-288 (1972)) solution (0.1 mM in PBS/1% dimethylformamide, 15 min, 22° C. Absorbance measurements were read in an plate reader using a 490 nm filter with 630 nm as the reference wavelength.\nThe binding characteristics of the sFv portion of the fusion protein were determined using a fluorescent activated cell sorting competition assay in which fusion protein and FITC-modified whole L49 competed for binding to cell-surface antigens on SK-MEL 28 melanoma cells. […]"}, "[2]": {"target": "T1, p97 antigen (Homo sapiens, UniProt P08582)", "T1 sequence (P08582 20-738)": "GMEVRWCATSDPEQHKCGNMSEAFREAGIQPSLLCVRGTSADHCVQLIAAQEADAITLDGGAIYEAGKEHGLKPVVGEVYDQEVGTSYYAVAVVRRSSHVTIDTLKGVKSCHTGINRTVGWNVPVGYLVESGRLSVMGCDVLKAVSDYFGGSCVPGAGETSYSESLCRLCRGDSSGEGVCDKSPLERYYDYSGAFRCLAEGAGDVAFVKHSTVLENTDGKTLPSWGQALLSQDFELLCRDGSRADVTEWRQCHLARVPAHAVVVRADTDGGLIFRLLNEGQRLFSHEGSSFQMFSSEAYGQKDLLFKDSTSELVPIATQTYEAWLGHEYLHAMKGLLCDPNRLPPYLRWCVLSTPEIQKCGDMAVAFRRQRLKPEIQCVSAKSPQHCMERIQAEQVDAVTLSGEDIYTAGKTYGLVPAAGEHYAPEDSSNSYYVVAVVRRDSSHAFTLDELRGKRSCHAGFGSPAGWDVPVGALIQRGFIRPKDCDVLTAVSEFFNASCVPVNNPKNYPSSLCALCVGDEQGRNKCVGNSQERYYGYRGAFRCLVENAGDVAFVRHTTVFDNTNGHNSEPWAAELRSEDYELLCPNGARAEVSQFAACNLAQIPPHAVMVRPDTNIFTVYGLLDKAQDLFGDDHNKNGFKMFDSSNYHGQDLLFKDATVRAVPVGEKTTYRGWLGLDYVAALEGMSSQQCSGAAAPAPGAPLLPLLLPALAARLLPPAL", "assay": "Surface plasmon resonance binding to immobilized p97 antigen", "details": "p97 immobilized on gold surface", "protocol": "The binding characteristics of the sFv portion of the fusion protein were determined using a fluorescent activated cell sorting competition assay in which fusion protein and FITC-modified whole L49 competed for binding to cell-surface antigens on SK-MEL 28 melanoma cells. […] More detailed information about binding was obtained using surface plasmon resonance, which allowed the measurement of the on and off rates of L49-sFv-bL binding to the p97 antigen immobilized on a gold surface (Table 1)."}, "[3]": {"system": "3677 melanoma cells", "assay": "In vitro cytotoxicity, [3H]thymidine incorporation", "format": "cell-based, human", "protocol": "In Vitro Cytotoxicity. 3677 melanoma cells were plated into 96-well microliter plates (10^4 cells/well in 100 μL of Iscove's Modified Dulbecco's Medium (IMDM) with 10% fetal bovine serum, penicillin (60 μg/ml), and streptomycin (100 μg/ml) and allowed to adhere overnight. For blocking experiments, the cells were incubated with unconjugated L49 at 1 μM for 30 min. prior to treatment with the L49 conjugates. The cells were treated with L49-sFv-bL or L49 Fab'-bL at 10 nM. After 30 min. at 4° C., the plates were washed three times with antibiotic-free RPMI 1640 media (Gibco) with 10% fetal bovine serum, and then varying concentrations of CCM (FIG. 1) were added. CCM and PDM were also added to cells treated with media alone. After 1 h at 37° C., cells were washed three times with IMDM and incubated approximately 18 h at 37° C. The cells were then pulsed for 12 h with [^3 H] thymidine (1 μCi/well) at 37° C., detached by freezing at -20° C. and thawing, and harvested onto glass fiber filter mats using a 96-well harvester (Wallac, Gaithersburg, Md.). Radioactivity was counted using a LKB Wallac β-plate counter.\nIn Vitro Cytotoxicity. […] Radioactivity was counted using a LKB Wallac β-plate counter.\nThe cytotoxic effects of L49-sFv-bL in combination with CCM were determined on 3677 human melanoma cells, which express the p97 antigen. […]"}, "[4]": {"assay": "Michaelis-Menten kinetic analysis of bL activity with nitrocefin as substrate", "format": "biochemical", "source_text": "Enzymatic activity assays of the bL portion of L49-sFv-bL were undertaken using nitrocefin as the enzyme substrate (Table 1). […] Thus, both the binding of the L49 antibody and enzymatic activity of the E. cloacae r2-1 bL were preserved in the fusion protein."}}}
{"molecule": "B1", "values": [{"measurement": "binding to the cell line in competition with FITC-modified whole L49", "setting": "[1]", "value": "bound equally well"}, {"measurement": "Kd", "setting": "[2]", "value": 1, "unit": "nM"}, {"measurement": "koff", "setting": "[2]", "value": 0.00042, "unit": "s⁻¹"}, {"measurement": "cytotoxic activity of conjugate + CCM combination", "setting": "[3]; conjugate 10 nM, washed, then CCM 1 h", "value": "equivalent in activity to PDM"}, {"measurement": "activation of CCM on cells previously saturated with L49 mAb", "setting": "[3]; unconjugated L49 1 μM before the fusion protein", "value": "did not activate CCM"}, {"measurement": "Km", "setting": "[4]", "value": 19, "unit": "µM"}, {"measurement": "enzymatic activity relative to the mutant bL enzyme", "setting": "[4]", "value": "retained the full enzymatic activity"}, {"measurement": "kcat", "setting": "[4]", "value": 232, "unit": "s⁻¹"}]}
